# Reference: patent publication US20180200383A1
# B1: IMGN853 (immunoconjugate of antibody huMov19, sulfo-SPDB and DM4) (antibody, from a related filing, V domains shown, part only)
# VH: QVQLVQSGAEVVKPGASVKISCKASGYTFTGYFMNWVKQSPGQSLEWIGRIHPYDGDTFYNQKFQGKATLTVDKSSNTAHMELLSLTSEDFAVYYCTRYDGSRAMDYWGQGTTVTVSS
# VL: DIVLTQSPLSLAVSLGQPAIISCKASQSVSFAGTSLMHWYHQKPGQQPRLLIYRASNLEAGVPDRFSGSGSKTDFTLTISPVEAEDAATYYCQQSREYPYTFGGGTKLEIKR
# Biological target: human folate receptor 1 (FOLR1) (human) (UniProt P15328)
# Sequence (P15328 25-234 limits assumed, form in doubt): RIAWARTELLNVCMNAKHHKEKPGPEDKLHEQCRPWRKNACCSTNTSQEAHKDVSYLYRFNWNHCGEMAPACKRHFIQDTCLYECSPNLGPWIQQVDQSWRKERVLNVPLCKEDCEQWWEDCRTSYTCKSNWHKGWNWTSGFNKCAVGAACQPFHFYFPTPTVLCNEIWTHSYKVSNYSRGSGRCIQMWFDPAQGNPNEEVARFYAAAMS
# Test: cell-based or functional assay
binder,measurement,value
B1,"IC50 of cytotoxicity on Jeg-3 cells (5 days, WST-8)",1 nM
